According to the nanobody polyreactivity screen of Harvey et al. (2022):

experiment: yeast display, Sf9 membrane polyspecificity reagent, FACS + sequencing; frameworks hold sequencing errors
Procedure, shortened: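 Sorting gates, low and high (top ~1%), were placed on anti-HA fluorescence to track expression and on streptavidin fluorescence to track reagent binding. A clone's polyreactivity label is taken from the gate it came out of. The reagent was 10% biotinylated, detergent-solubilized Sf9 membrane, applied for 1 hour at 4 °C to galactose-induced yeast display cells.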

Row | Sequence | polyreactivity (PSR sort gate)
1 | QVQLVESGGGLVQAGGSLRLSCAASGRTFNPYSLGWYRQAPGIVRELVAAISYRGGSTYNADSVKGRFTISRDNAKNTVYLQLNSLKPEDTAVYYCAKRGYASGSKWDYGYWGQGTQVTVSS | high polyreactivity
2 | QVQLVESWGGLVQAGGSLRLSCAASGSTITAKAMGWYRQAPGKERELVAAITKSGGDTYYADSVKGRFTISRDNAKNTVYLQMNSLKPEDTAVYYCAARIRPYAYRSLYGYWGQGTQVTVSS | low polyreactivity
3 | QVQLVESGGGLVQAGGSLRLSCAASGRTFSRYVMGWYRQAPGKERELVAGISQSGARTTYADSVKGRFTISRDNAKNTVYLQMNSLKPEDTAVYYCAAVGYGIRSYYSYDYWGQGTQVTVSS | high polyreactivity
4 | QVQLVESGGGLVQGGGSLRLSCAASGINFSVYPMGWYRQAPGKERELVAAISVGGGRTYYAYSVKGRFTISRDYAKNTFYLEMNSLKAEDTAVYYCDARLGTRQYKMDYWGQGTQVTVSS | high polyreactivity
5 | QVQLVESGGGLVQAGGSLRLSCAASGIIFYDYAMGWYRQAPGKERELVAAITSNGDNTYYADSVKGRFTISRDNAKNTVYLQMNSLKPEDTAVYYCDVDGSFAADFDNYLEEYGYWGQGTQVTVSS | low polyreactivity
6 | QVQLVESVGGLVQAGGSLRLSSAASGFTFVPYAMGWYRQAPGKERETNADSVKGRFTISRDNAKNTVYLQMNSLKPEDTAVYYCAADLGRGIYDYWGQGTQVTVSS | low polyreactivity
7 | QVQLVESGGGLVQAGGSLRLSCAASGSTFYTYTMGWYRQAPGKERELVAAITWSGGSTYYADSVKGRFTISRDNANNTVYLQMNSLKPEDTAVYYCNADQDYKGARPSGMDYCGQGTQVTVSS | low polyreactivity
8 | QVQLVESGGGLVQAGGSLRLSCAASGRTFSRNAMGWYRHAPGKEWELVAAISRTGGSTYYADSVKGRFTISRDNAKKTVYLQMNSLKPEDTAVYYCAAGTWGWYAYGYWGLGTQVTVSS | high polyreactivity
9 | QVQLVESGGGLVQAGGSLRLSCAASGRIFARYAMGWYRQAPGKERELVAAITSRGGSTYYADSVKGRFTISRDNAKNTVYLQMNSLKPEDTAVYYCNADYYRRPYYYWGQGTQVTVSS | high polyreactivity
10 | QVQLVESGGGLVQAGGSLRLSCAASGLTSYDYGMGWYRQAPGKERELVAAITWSGGSTYYADSVKGRFTISRDNAKNTVYLEMHSLKPEDTAVYYCAAESWGYGWYGYWGQGNQVTVSS | low polyreactivity
11 | QVQLVESGGGLVQAGGSLRLSCAASGSNFGPYAMGWSRPAPGKEMELVASITWTGGRTYYADSVKGRFTISLDNAKNTVYLQMNSLKPEDTAVYYCAADYSPSTWYLYYTLYYYWGQGTQVTVSS | low polyreactivity
12 | QVQLVESGGGLVQAGGSLRLSCAASGRTFSFYAMGWYRQAPGKERELVAAISRGGGSTYYADSVKGRFTISRDNAKNTVYLQMNSLKPEDTAVYYCAAPFLYRRGYDYWGQGTQVTVSS | high polyreactivity
13 | QVQLVESGGGLVQAGGSLRLSCAASGSIFSKNAIGWYRQAPGKERELVATISRSGGSTYYADSVKGRFTISRDNAKNTVYLQMNSLKPDDSAVYYCNRDTRYYWKRYGYWGQGTQVTVSS | high polyreactivity
14 | QVQLEESGGGLVQAGGSLRLSCAASGSTFANYAMGWYRQAPRKERELVAGISWRGGRTYYADSVMGRFTISRDNGKNTVYLQINILKPEDTAVYYCAVVHQTFTGDYWGQGTQVTVSS | high polyreactivity
15 | QVQLVESGGGLVQAGGSLRLSCAASGFTIGYYVMGWYRQAPGKDRELVAAITRSGSRTYYADSVKGRFTISRDNAKNTVYLQMNSLKPEETAVYYCAADYKTFLRSFDYWGQGTQVTVSS | high polyreactivity
16 | QVQLVESGGGLVQAGGSLRLSCAASGRIFLPNAMGWYRQAPGKERELVATITRGGGSTYYADSVKGRFTISRDNAKNTVYLQMNSLKPEDTAVYYCAKGYLLYQGHLPYWHRGGYWGQGTQVTVSS | high polyreactivity
17 | QVQLVESGGGLVQAGGSLRLSCAASGRTIGYYAMGWYRQAPGKERELVAAITWSGGNTYYADSVKGRFTISRDNAKNTVYLQMNSLKPEDTAVYYCNALYLWGMDYWGQGTQVTVSS | low polyreactivity
